One variant from PMC13061415 (2026) can be followed below.

First the molecules themselves.
B1: muskelin CTLH-CRA domain (205–735 Δ248–625) [rat] / Twa1 CTLH-CRA domain (58-190), wild type [mouse] (parent complex)
chain 1: EHPMLTDMHDKLVLKGDFDACEELIEKAVNDGLFNQYISQQEYPSKDYLLRHCKYLIRKHRFEEKAQMDPLSALKYLQNDLYITVDHSDPEETKEFQLLASALFKSGSDFTALGFSDVDHTYAQRTQLFDTLVNFFPDSMTPPKGNLVDLITL
chain 2: SVDLETLDERIKIREMILKGQIQEAIALINSLHPELLDTNRYLYFHLQQQHLIELIRQRETEAALEFAQTQLAEQGEESRECLTEMERTLALLAFDSPEESPFGDLLHMMQRQKVWSEVNQAVLDYENRESTP

In this assay the parent is B1. Nature of the assay: ITC; 160 µM muskelin + 16 µM Twa1 mutants; read off a plot. Background: In ITC the heat of successive injections is recorded.
For the variant chain 2 A68G, chain 2 Q69R, chain 2 A73Q, chain 2 L83K, chain 2 E87K, chain 2 L90F, chain 2 F95Y, chain 2 F103V, the dG was around -8.8 kcal/mol.
